Test results published in patent publication US12291727B2, “Method for producing stem cell-derived lacrimal gland tissue” (Osaka University, priority 2018, dated 2025).

Tested on: CD200−, SSEA4+, and CD104+ ocular surface stem cells
Assay: Three-dimensional culture for induction of lacrimal gland organoids from iPS cell-derived ocular surface stem cells
Assay type: cell-based, Human
Details: for promoting lacrimal gland differentiation: 3D culture in Matrigel, 20 ng/mL KGF, 100 ng/mL FGF10, 100 ng/mL BMP7 or 10 μM Y-27632, each plus 10 ng/mL EGF, FIG. 5A
Procedure: The obtained ocular surface stem cells were seeded on PrimeSurface (registered trademark) 96U plates (Sumitomo Bakelite Co., Ltd.) at 50,000 cells/spheroid in DMEM/F-12 with B27 supplement containing 10 μM Y-27632 and 20 ng/mL KGF and cultured for 1 day to form spheroids (diameter: about 560 μm). The spheroids were embedded in Matrigel GFR (Corning) and cultured in DMEM/F-12 with B27 supplement containing 10 μM Y-27632, 10 ng/mL EGF, and 100 ng/mL TGF-β3 for 2 weeks.
Three-dimensional culture was performed as described in Example 2 in the presence of 10 ng/mL EGF, 10 ng/mL EGF plus 10 μM Y-27632, or 10 ng/mL EGF plus another growth factor reportedly involved in lacrimal gland differentiation, namely, 20 ng/mL KGF, 100 ng/mL FGF10, or 100 ng/mL BMP7.
Similarly, three-dimensional culture was performed in DMEM/F-12 with B27 supplement, 10 ng/mL EGF, and 10 μM Y-27632 containing 100 ng/mL TGF-β1, β2, or β3.
Three-dimensional culture was performed as described in Example 2 in a medium with 10 ng/mL EGF and 10 μM Y-27632 containing 4, 20, or 100 ng/mL TGF-β3.
RNA was collected from each sample using QIAzol Lysis Reagent and subjected to gene expression analysis as described in Example 3.

| Molecule | promoting lacrimal gland differentiation | also measured |
| --- | --- | --- |
| C[C@@H](N)[C@H]1CC[C@H](C(=O)Nc2ccncc2)CC1 [Y-27632, N-(4-pyridinyl)-4β-[(R)-1-aminoethyl]cyclohexane-1α-carboamide, reference compound] | remarkably promoted lacrimal gland differentiation | – |
| TGF-β | – | maturation of the lacrimal gland structure (100 ng/mL TGF-β1, β2 or β3 in medium with 10 ng/mL EGF and 10 μM Y-27632, FIG. 5B): helped further maturation of the lacrimal gland structure |
| BMP7: growth factor reportedly involved in lacrimal gland differentiation (protein, UniProt P18075 293-431, looked up) Bone morphogenetic protein 7: STGSKQRSQNRSKTPKNQEALRMANVAENSSSDQRQACKKHELYVSFRDLGWQDWIIAPEGYAAYYCEGECAFPLNSYMNATNHAIVQTLVHFINPETVPKPCCAPTQLNAISVLYFDDSSNVILKKYRNMVVRACGCH | less effective | – |
| KGF: keratinocyte growth factor, growth factor reportedly involved in lacrimal gland differentiation (protein, UniProt P21781 32-194, looked up) Fibroblast growth factor 7: CNDMTPEQMATNVNCSSPERHTRSYDYMEGGDIRVRRLFCRTQWYLRIDKRGKVKGTQEMKNNYNIMEIRTVAVGIVAIKGVESEFYLAMNKEGKLYAKKECNEDCNFKELILENHYNTYASAKWTHNGGEMFVALNQKGIPVRGKKTKKEQKTAHFLPMAIT | less effective | – |
| TGF-β3: TGF-β subtype added to the medium to promote cell maturation (protein, UniProt P10600 301-412, looked up, Transforming growth factor beta-3, TGF-β subtype added to the medium to promote cell maturation) Transforming growth factor …: ALDTNYCFRNLEENCCVRPLYIDFRQDLGWKWVHEPKGYYANFCSGPCPYLRSADTTHSTVLGLYNTLNPEASASPCCVPQDLEPLTILYYVGRTPKVEQLSNMVVKSCKCS | – | maturation (morphology and gene expression) (4 ng/mL TGF-β3 in medium with 10 ng/mL EGF and 10 μM Y-27632, FIGS. 6A, 6B): maturation was promoted to some extent; extent of maturation, concentration dependence (4, 20 or 100 ng/mL TGF-β3 in medium with 10 ng/mL EGF and 10 μM Y-27632): increased in a TGF-β3 concentration dependent manner |
| FGF10: growth factor reportedly involved in lacrimal gland differentiation (protein, UniProt O15520 38-208, looked up) Fibroblast growth factor 10: QALGQDMVSPEATNSSSSSFSSPSSAGRHVRSYNHLQGDVRWRKLFSFTKYFLKIEKNGKVSGTKKENCPYSILEITSVEIGVVAVKAINSNYYLAMNKKGKLYGSKEFNNDCKLKERIEENGYNTYASFNWQHNGRQMYVALNGKGAPRRGQKTRRKNTSAHFLPMVVHS | less effective | – |
